From paper PMC4608796

Assays:
[1] = biological target: T1, CodY-His5 (Bacillus subtilis) (UniProt P39779); test: EMSA; conditions: CodY assays with 10 mM ILV (plus 2 mM GTP in Fig 2 footprints); Kd = protein monomer concentration shifting 50% of DNA; buffer, salt, pH and temperature not …
T1 sequence: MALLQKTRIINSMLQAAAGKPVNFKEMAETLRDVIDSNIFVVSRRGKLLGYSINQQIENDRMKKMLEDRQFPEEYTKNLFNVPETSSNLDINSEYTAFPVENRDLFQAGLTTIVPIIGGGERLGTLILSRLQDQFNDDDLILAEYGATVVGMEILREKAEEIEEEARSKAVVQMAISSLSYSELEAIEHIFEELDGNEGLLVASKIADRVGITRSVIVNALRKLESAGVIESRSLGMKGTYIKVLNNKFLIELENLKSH

[2] = biological target: T2, His6-ScoC (Bacillus subtilis) (UniProt P11065); test: EMSA; conditions: CodY assays with 10 mM ILV (plus 2 mM GTP in Fig 2 footprints); Kd = protein monomer concentration shifting 50% of DNA; buffer, salt, pH and temperature not …
T2 sequence: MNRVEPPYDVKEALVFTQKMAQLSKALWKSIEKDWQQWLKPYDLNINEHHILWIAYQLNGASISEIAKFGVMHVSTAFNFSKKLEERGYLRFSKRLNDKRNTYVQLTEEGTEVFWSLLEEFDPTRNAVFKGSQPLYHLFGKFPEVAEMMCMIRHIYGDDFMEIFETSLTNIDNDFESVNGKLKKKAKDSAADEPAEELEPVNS

Substance	Kd [1] [nM]	Kd [2] [nM]
TCGTTTCGTCATATTATCTGACAATTAATTGACAGAATATTTTAACATAATTATTAGGAGGATT (double strand) [braB64]	5	150
braB242p+	3	–
braB144p+ (gel shift)	4	–
braB156p+ (gel shift)	75	–
